# In patent publication US20150073033:
# Key:
# [1] = target: purified GST-β-catenin (unphosphorylated) (UniProt P35222)
# [2] = target: purified recombinant GST-Bub3 (wild type) (UniProt O43684)
# [3] = test system: purified recombinant His-tagged WT histone H3
# purified recombinant GST-Bub3 (wild type), sequence (O43684 whole entry): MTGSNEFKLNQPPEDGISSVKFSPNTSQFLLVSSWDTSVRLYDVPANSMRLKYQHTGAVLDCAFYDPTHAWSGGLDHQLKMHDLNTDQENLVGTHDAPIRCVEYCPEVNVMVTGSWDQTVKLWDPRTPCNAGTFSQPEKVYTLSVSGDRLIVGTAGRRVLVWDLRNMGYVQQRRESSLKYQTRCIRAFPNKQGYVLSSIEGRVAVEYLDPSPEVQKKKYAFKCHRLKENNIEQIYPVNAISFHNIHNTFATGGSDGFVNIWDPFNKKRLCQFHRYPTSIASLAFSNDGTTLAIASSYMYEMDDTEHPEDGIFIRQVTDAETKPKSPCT
# purified GST-β-catenin (unphosphorylated), sequence (P35222 whole entry): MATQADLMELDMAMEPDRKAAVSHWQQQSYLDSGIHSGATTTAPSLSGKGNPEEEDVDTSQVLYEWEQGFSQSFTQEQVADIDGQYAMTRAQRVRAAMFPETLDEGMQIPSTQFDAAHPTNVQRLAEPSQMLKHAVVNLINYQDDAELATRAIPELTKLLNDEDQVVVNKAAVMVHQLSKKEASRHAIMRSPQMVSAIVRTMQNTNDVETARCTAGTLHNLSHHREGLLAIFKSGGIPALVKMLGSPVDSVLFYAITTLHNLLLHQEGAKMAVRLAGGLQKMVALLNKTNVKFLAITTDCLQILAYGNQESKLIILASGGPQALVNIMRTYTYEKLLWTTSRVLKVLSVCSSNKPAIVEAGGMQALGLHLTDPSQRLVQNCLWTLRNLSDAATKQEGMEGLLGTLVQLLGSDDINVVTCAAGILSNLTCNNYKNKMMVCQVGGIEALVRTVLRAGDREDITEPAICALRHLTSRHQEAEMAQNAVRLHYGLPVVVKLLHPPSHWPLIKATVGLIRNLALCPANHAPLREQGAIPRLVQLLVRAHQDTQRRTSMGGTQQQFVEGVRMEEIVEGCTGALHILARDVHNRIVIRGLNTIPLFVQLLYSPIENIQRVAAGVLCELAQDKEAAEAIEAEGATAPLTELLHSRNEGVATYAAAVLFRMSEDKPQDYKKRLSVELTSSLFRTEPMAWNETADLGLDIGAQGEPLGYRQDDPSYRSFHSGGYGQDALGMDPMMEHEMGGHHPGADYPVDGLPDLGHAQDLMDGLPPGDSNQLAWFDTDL
Substance,in vitro protein kinase assay (Tyr and Y333 phosphorylation by immunoblot) [1],in vitro protein kinase assay with PEP (anti-phospho-Tyr immunoblot) [2],in vitro phosphorylation with PEP (anti-phospho-Thr and phospho-H3-T11 immunoblot) [3]
purified active c-Src,active c-Src was able to phosphorylate WT β-catenin,,
purified recombinant His-PKM2 (wild type),,"PKM2, but not PKM2 K367M or PKM1, phosphorylated Bub3","WT PKM2, but not PKM2 K367M kinase-dead mutant (Yang et al., 2011) or PKM1, phosphorylated WT histone H3 but not H3-T11A"
